The text below walks through data of patent US20220220174A1 (BIMYO, published 2022).

Assay [1] deals with T1, recombinant BNIP3 (BCL-2 adenovirus E1B 19 kDa interacting protein-3) (mouse, UniProt O55003 1-187, limits assumed, labelled with DyLight 650 for the microarray).
T1 construct: Bought recombinant protein (cusabio); also called recombinant BNIP3 (cusabio)
In words: peptide microarray, immobilised peptide, labelled recombinant BNIP3 in solution.
Procedure: (§1) Interaction studies. For protein-peptide interaction studies, peptide libraries were synthesised and immobilised on microarray slides.
(§2) Microarray. […] As labelling kit a DyLight Microscale Antibody Labeling Kit (Thermo) with label Dylight 650 was used. The assay was performed using the automated TECAN HS4800 microarray processing station. Microarrays were incubated with customer provided samples diluted in blocking buffer for 2 h at 30° C. Before each step, microarrays were washed with washing buffer. Microarrays were scanned using a high-resolution fluorescence scanner. Laser settings and applied resolution were identical for all performed measurements. The resulting images were analyzed und quantified using spot-recognition software GenePix (Molecular Devices). […] For further data evaluation, the so called MMC2 values were determined. The MMC2 equals the mean value of all three instances on the microarray except when the coefficient of variation (CV)—standard-deviation divided by the mean value—is larger 0.5. In this case the mean of the two closest values (MC2) is assigned to MMC2. All steps were performed by JPT Peptide Technologies (Berlin, Germany).

The target of assay [2] is T1, recombinant BNIP3 (BCL-2 adenovirus E1B …). The assay is described as above. This is another data set of the same source.
Procedure: as §1, §2

Like-named read-outs stand apart in the source and are kept apart here.

B1: BNIP3-20A peptide sequence MSQSGEENLQGSWVELHFSN (BNIP3 amino acids 1-20, wild type) (peptide)
peptide: MSQSGEENLQGSWVELHFSN
notes: Peptide immobilised on the microarray; also called BNIP3 1-20
B1: the Fluorescence intensity in assay [1] and in assay [2] was 1040 arbitrary units throughout. On to MSQSGEENLQGSWVELYFSN (Peptide immobilised on a microarray slide; attachment chemistry not stated., Peptide immobilised on the microarray) [substituted BNIP3-20A peptide MSQSGEENLQGSWVELYFSN (H17 -> Y)], for which the Fluorescence intensity in assay [1] is 7990 arbitrary units.

Turning to MSQSGEENLQYSWVELHFSN (Peptide immobilised on a microarray slide; attachment chemistry not stated., Peptide immobilised on the microarray) [substituted BNIP3-20A peptide MSQSGEENLQYSWVELHFSN (G11 -> Y)], the Fluorescence intensity in assay [1] was determined as 10200 arbitrary units. With MSQSGYENLQGSWVELHFSN (Peptide immobilised on a microarray slide; attachment chemistry not stated., Peptide immobilised on the microarray) [substituted BNIP3-20A peptide MSQSGYENLQGSWVELHFSN (E6 -> Y)], the Fluorescence intensity in assay [1] is 13100 arbitrary units.

On to MSQSGEENLQGSWVCLHFSN (Peptide immobilised on a microarray slide; attachment chemistry not stated., Peptide immobilised on the microarray) [substituted BNIP3-20A peptide MSQSGEENLQGSWVCLHFSN (E15 -> C)], for which the Fluorescence intensity in assay [1] came to 7150 arbitrary units. Regarding MSQSGEENLQGCWVELHFSN (Peptide immobilised on a microarray slide; attachment chemistry not stated., Peptide immobilised on the microarray) [substituted BNIP3-20A peptide MSQSGEENLQGCWVELHFSN (S12 -> C)], the Fluorescence intensity in assay [1] was 7040 arbitrary units.

For MSQSGEENLQGSWVELCFSN (Peptide immobilised on a microarray slide; attachment chemistry not stated., Peptide immobilised on the microarray) [substituted BNIP3-20A peptide MSQSGEENLQGSWVELCFSN (H17 -> C)], the Fluorescence intensity in assay [1] was 6790 arbitrary units.

Regarding MSQSGEENLQGSWVELHFFN (Peptide immobilised on the microarray) [substituted BNIP3-20A peptide MSQSGEENLQGSWVELHFFN (S19 -> F)], the Fluorescence intensity in assay [1] was determined as 15000 arbitrary units.

B2: truncated BNIP3-20A fragment WVELHFSN (peptide)
peptide: WVELHFSN
notes: Peptide immobilised on the microarray; also called BNIP3 13-20
B2: the Fluorescence intensity in assay [2] came to 14400 arbitrary units.

B3: truncated BNIP3-20A fragment SGEENLQGSWVELHFSN (peptide)
peptide: SGEENLQGSWVELHFSN
notes: Peptide immobilised on the microarray; also called BNIP3 4-20
Regarding B3, the Fluorescence intensity in assay [2] is 2660 arbitrary units.

B4: truncated BNIP3-20A fragment SWVELHFSN (peptide)
peptide: SWVELHFSN
notes: Peptide immobilised on the microarray; also called BNIP3 12-20
For B4, the Fluorescence intensity in assay [2] worked out at 4890 arbitrary units.
